Laboratory results: article PMC7477763

Key:
[1] = target: Middle East respiratory syndrome papain-like protease (MERS PLpro), recombinant (Middle East respiratory syndrome coronavirus)
[2] = target: human UCH-L3, recombinant (human) (UniProt P15374)
Chain of UniProt P15374 (P15374 whole entry): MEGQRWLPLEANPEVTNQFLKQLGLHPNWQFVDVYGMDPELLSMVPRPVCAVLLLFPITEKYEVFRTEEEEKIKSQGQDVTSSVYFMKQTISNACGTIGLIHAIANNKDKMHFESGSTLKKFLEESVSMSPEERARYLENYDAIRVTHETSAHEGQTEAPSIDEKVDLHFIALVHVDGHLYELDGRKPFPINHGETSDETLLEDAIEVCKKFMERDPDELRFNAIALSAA

In the case of “Ub-ACC (ubiquitin with C-terminal ACC fluorophore) (from UniProt P0CG48 1-76)”, the KM of hydrolysis of the ACC-labeled substrate (release of ACC) [1] is reported as 3.55 µM, the kcat of hydrolysis of the ACC-labeled substrate [1] is reported as 3.68 s^–1 and the kcat/KM of hydrolysis of the ACC-labeled substrate [1] is reported as 1e+06 M^–1 s^–1. For the same substance, the KM of hydrolysis of the ACC-labeled substrate (release of ACC) [2] was 0.048 µM and the kcat of hydrolysis of the ACC-labeled substrate [2] was 0.107 s^–1.
